Reference: article PMC6362186, “Isolation and biochemical characterization of a metagenome-derived 3-deoxy-D-arabino-heptulosonate-7-phosphate synthase gene from subtropical marine mangrove wetland sediments” (AMB Express, 2019)

System: T1, C=C(OP(=O)(O)O)C(=O)O
T1 construct: His-tagged from pET-30a(+) HindIII/XhoI, tag removal not mentioned, ~37 kDa on SDS-PAGE; E. coli Rosetta (DE3), Ni resin; tetramer only by homology model
Test: purified protein
Assay type: biochemical, uncultured bacterium
Settings: co-substrate D-erythrose 4-phosphate, optimal conditions pH 8.0, 40 °C, CoCl2 0.1 mM in standard assay, PEP range printed as 0.1–0.5 μM

In the case of Aro1A (uncultured bacterium), the Km is reported as 19.58 µM and the kcat is reported as 17.3 s⁻¹.
